Assay results as given in the supplement of paper PMC12042874.
± gives the uncertainty stated by the source.

Assay: amyloid nucleation score (Sup35N fusion, yeast selection) (log enrichment); library NNK1; higher = more nucleation; inactive = no reads after selection
In short: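 For the nucleation score, DiMSum gave the log enrichment of output over input reads, centred on the mode score of non-aggregating sequences. Psi-negative yeast expressing Sup35N fused to peptides of 20 random codons were induced with 100 μM copper sulfate for 24 hours and grown 7 days at 30°C on medium lacking adenine and uracil. Input and output plasmid inserts were Illumina-sequenced, and sequences with under 100 input reads were excluded.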

Row | Substance | amyloid nucleation score
1 | TLSGFYPMYHHLCHECVLKP | 1.13 ± 0.37
2 | TLSTRTIHSCSEYYSGMCVL | 0.089 ± 0.93
3 | TLTCFLIYHTWTR | -1.34 ± 1.4
4 | TLVTEESWMSLLSVNIAQ | -0.378 ± 0.59
5 | TLYHSI | -0.385 ± 0.56
6 | TMGLSLYGV | -0.174 ± 0.51
7 | TMIWFQLRTTLLNYQATVFL | inactive
8 | TMIWLVAPPPLLAMVLY | 0.392 ± 0.6
9 | TMKVGYQGICYTETSGMSFV | inactive
10 | TMLWIVIARNFECEMGFNM | 3.1 ± 0.08
11 | TMSHCVRRCGVMGGVVAFKG | -0.031 ± 0.38
12 | TMTSPVGWETSSFRRMDR | 0.796 ± 0.52
13 | TMVFVCSNYGPSFSLLVC | 2.83 ± 0.24
14 | TMYVALFLFLA | 2.54 ± 0.29
15 | TNDTAPVWHTDLMTDWR | -0.079 ± 0.57
16 | TNFRRSCYVDGVC | inactive
17 | TNGNGFIRRFTRAYFFT | -0.338 ± 0.5
18 | TNISQGRCKVECLPITSIYG | 0.247 ± 0.75
19 | TNISSTGFAIYWLCN | 7.16 ± 0.049
20 | TNITNLSSFVMDDTGWSVNE | inactive
21 | TPANNVRISFIWFL | 3.54 ± 0.064
22 | TPGVKPYYWIRLTEIVATHS | 0.52 ± 1.2
23 | TPRCLGERTISGISFYKV | -1.04 ± 0.55
24 | TPSSAFFDAMLNLQQVQSKC | inactive
25 | TPYYPSQKQCRMPRGACVL | -0.435 ± 0.48

Row | Substance | amyloid nucleation score
26 | TQDEMVSVRNKLSCVTLE | 4.04 ± 0.06
27 | TQEKMSVGYYASNSLFWSML | 0.36 ± 1.2
28 | TQRTAFRGR | 0.203 ± 0.75
29 | TRAAYLGRGREMRCIKVAFW | 1.31 ± 0.93
30 | TRCCLFDRSSIYPSYCNEEA | -0.123 ± 0.9
31 | TRGVGYFIREIFGS | 0.241 ± 1.4
32 | TRHCMRLWECKHEMRTAN | -0.647 ± 1.1
33 | TRHFLSIVLLEL | 1.78 ± 0.28
34 | TRRDNVPQHNLGVTLLMVRE | -1.29 ± 2.7
35 | TRTLLNVHCCPSVW | 6.614 ± 0.054
36 | TRYMICSL | 0.121 ± 0.6
37 | TSACFFFRCCCLRS | 3.76 ± 0.15
38 | TSDFVVPM | 0.691 ± 0.41
39 | TSDNFCQCHCSFFQSWFGG | -0.27 ± 0.63
40 | TSDRVVPFGSISWKGCSRVR | -0.981 ± 0.85
41 | TSENLNSASNLSSYVADMPI | 0.273 ± 0.35
42 | TSFLV | -0.028 ± 0.91
43 | TSGSGINITL | inactive
44 | TSKDEFKFEYRNEKVNQ | 1.75 ± 0.21
45 | TSPDCKAAKSQGSKCRDRSC | -0.495 ± 0.62
46 | TSPYDSNGLFAMLAELHFYS | 0.082 ± 0.78
47 | TSRFSFCGS | 1.85 ± 0.14
48 | TSSVEVNPERVITISGTVS | -0.018 ± 0.17
49 | TSVLLQHGLWIGS | 0.685 ± 0.34
50 | TSWRAWVGAVKRSAFFYTYY | 0.444 ± 1.4

Row | Substance | amyloid nucleation score
51 | TSWVEAPSVSSFGWFLSVHL | 1.91 ± 0.12
52 | TTCCINSLMCTDTNSCIAGV | 2.08 ± 0.6
53 | TTCLTQNLDQGSLLYKVLPR | 1.43 ± 0.18
54 | TTDPVWFSAI | 0.346 ± 0.4
55 | TTDSVDDTRKYAYGFIACGV | 0.114 ± 0.47
56 | TTFGRPSTPH | -0.393 ± 0.38
57 | TTLKGCSIY | 0.934 ± 0.41
58 | TTLVQCQFIPTFCVIPMWLL | 5.58 ± 0.058
59 | TTPEAFNSLFAIRGGLLPQR | -0.415 ± 0.47
60 | TTRHSNQSIM | 0.344 ± 0.4
61 | TTWER | 0.496 ± 1.2
62 | TTYYRFNVDKTFSAVISAEF | -1.02 ± 2.4
63 | TVFIKLKVFAMN | 1.53 ± 0.18
64 | TVFWRYCSRVLNDKFGQFWV | 0.043 ± 0.35
65 | TVGMRYFVWVKGSKTKREER | 0.674 ± 1.2
66 | TVISV | -1.47 ± 0.5
67 | TVRGCRCLAFPWFNG | 0.5 ± 0.48
68 | TVSIPKPILFCEFYFRYADM | -1.67 ± 0.73
69 | TVSMDVLYMIGGCLLCVV | 0.209 ± 0.41
70 | TVVIDSFLCRLQNGVDLGS | inactive
71 | TVVYDWFG | -0.078 ± 0.75
72 | TVWTGQRRMRVSTGCLWSGG | inactive
73 | TVWYITTLAGEFAA | 1.09 ± 0.53
74 | TVWYYSHPS | 0.34 ± 0.48
75 | TVYGGLWAFSKTICCVSPKR | 7.228 ± 0.056

Row | Substance | amyloid nucleation score
76 | TVYMGTLCHYYSGIRLGSIL | 0.458 ± 0.4
77 | TVYSLYVIDALGFLCTNVML | 0.349 ± 0.62
78 | TWAHMQYDVWPDPTAEKDQV | 0.158 ± 0.34
79 | TWARRFYATRVTTCLNQRVL | 0.416 ± 0.81
80 | TWMNASCKSCTYAARFSDQK | 1.51 ± 0.56
81 | TWQSLHGTVTRPRAIVFRLC | 0.027 ± 0.66
82 | TWRCQLIYTCGNVSRKPVLL | -0.148 ± 0.5
83 | TWSLLNIVYMSN | 0.867 ± 0.39
84 | TWSSGRETSCVLFWVQVSKL | -0.101 ± 0.33
85 | TWVVTHPPTM | 0.359 ± 0.55
86 | TYLRPWPFTVLLIWRRYSCL | 0.244 ± 0.81
87 | TYPMATIIVALG | -0.681 ± 0.38
88 | TYPYMCNHFLVLELNVIVAL | 0.363 ± 0.58
89 | TYPYRPLHSPFTNRFLSPNG | -0.926 ± 0.73
90 | TYRCR | 0.624 ± 0.53
91 | VADCPCLGLVNTLAETMNVC | 0.243 ± 0.6
92 | VAFLTKNCYEFDDTVRTCAV | -0.569 ± 0.42
93 | VAGWRPFILLGGPRLNTVRQ | 0.407 ± 0.67
94 | VAKVLKSSCGRYG | -0.573 ± 0.44
95 | VANFET | -0.769 ± 1.1
96 | VANQNHLSCDIMSSARCERH | 0.244 ± 0.65
97 | VAQLFHWADLYNTSYYVSCV | 3.38 ± 0.089
98 | VASTTSGRHWSLRGHKRFGR | 1.28 ± 0.72
99 | VATCWRYSGMSARLLSGSLN | 0.516 ± 0.4
100 | VAYSVI | 1.02 ± 0.66

Row | Substance | amyloid nucleation score
101 | VCITNNELVGVFDDEVFIAF | inactive
102 | VCKFNYL | -0.769 ± 1.1
103 | VCKMSTLVDDWRGSARPHRL | 0.782 ± 0.37
104 | VCLVFVFDVSTVPNICCYAT | -0.189 ± 0.37
105 | VCMLVHLVTFAPNS | 2.61 ± 0.26
106 | VCRPYVRLSPGGM | -1.27 ± 2.7
107 | VCWYWVGILRMMICACTSPS | 0.362 ± 0.43
108 | VDEETMCSFLSLGKVY | 0.474 ± 0.69
109 | VDGMGYDLIMCLYYNGLWAN | 0.515 ± 0.54
110 | VDKKRAISCKSFRLYGRFSL | -0.647 ± 0.32
111 | VDKYIIFIEIYIADSCDTLG | 0.374 ± 0.54
112 | VDLLNGDWNRSLMKAKPVER | 0.17 ± 0.29
113 | VDLTLPASAVGNELCAREVG | 0.155 ± 0.34
114 | VDMNAEKTSSDERLWERRRT | 0.606 ± 0.65
115 | VDRGCKYKQLMREVVSEHVI | 0.753 ± 0.63
116 | VDSSRRDVCDGDT | 0.104 ± 0.48
117 | VEAESFARCDRHVHRQTIGG | 0.369 ± 0.54
118 | VEAMLTEPWRWH | -0.522 ± 1.7
119 | VEFFFDF | -0.417 ± 0.77
120 | VEIYWWGYPPKNSI | -0.239 ± 0.39
121 | VELGRLIPPEHETQDLRSGW | 0.258 ± 0.46
122 | VEQLFGLAMRDLA | -0.448 ± 0.8
123 | VESLDKIPMR | 0.173 ± 0.73
124 | VESVSWVCDRCTGLVLVWSG | inactive
125 | VETRRWFHRL | -0.177 ± 1.4

Row | Substance | amyloid nucleation score
126 | VEVKSCIWDFGCNQRGYGDG | 5.32 ± 0.079
127 | VFCLRLAYNAFREMSAHKC | 3.31 ± 0.18
128 | VFFKKAIIFRSKV | 0.318 ± 0.33
129 | VFGVGGTYLFIDVEAVWGSG | 1.61 ± 0.57
130 | VFKGQMVVPPIYVYLVSWMG | -1.06 ± 1.7
131 | VFLFNTAYESKNPMSKLKVC | -1.24 ± 0.5
132 | VFLIDLLLTMCFFLYGAFLV | 0.76 ± 1.1
133 | VFRDVHD | 0.417 ± 0.42
134 | VFRTISYRV | 0.039 ± 0.69
135 | VFSFLPSYGHKCTAKQFFSA | -0.3 ± 1.4
136 | VFYFELKG | -0.183 ± 0.28
137 | VFYFYYFDEMCVSSMNRLKL | -0.36 ± 0.27
138 | VFYGCVDESCDLNRLGSVSY | -0.101 ± 0.54
139 | VGELFCGWSRRERYPVWSLV | 0.255 ± 1.4
140 | VGFGPVWTRPYNTWYNYGKS | 0.514 ± 0.66
141 | VGIEFLYLPFVSSRWVVTKW | 0.277 ± 1.4
142 | VGISCPYYLGRGIMVEARSD | -0.006 ± 0.62
143 | VGIWIGVDMGIGWGRDSVYV | 0.125 ± 0.53
144 | VGMSSDCAGSLRRWRLWARL | 4.55 ± 0.1
145 | VGNEWSVLRLGGGVGSIFL | -1.07 ± 1.3
146 | VGNNKLFKTPMKDRELMICL | -0.184 ± 0.48
147 | VGNRCGVL | 0.05 ± 0.33
148 | VGPIFLHTLRRSVN | -0.532 ± 0.83
149 | VGSQKCLYCGVAYSEGVWIY | inactive
150 | VGVMFG | -0.06 ± 0.69

Row | Substance | amyloid nucleation score
151 | VGVSAVSTNSSVSKIFGTSW | 0.746 ± 0.85
152 | VHCHMEITSWLGRRS | 2.8 ± 0.12
153 | VHDVWEGFICGLPKYRGRLM | 0.026 ± 0.75
154 | VHIPHDCISAIVFRSSAAIS | -0.331 ± 0.49
155 | VHNHISP | -0.836 ± 0.37
156 | VHSCYLVLARQWNVIKISHI | 0.039 ± 0.43
157 | VHTGLVSEIRRDKREGAYPE | 0.128 ± 0.99
158 | VHTVYLLVDTR | 0.289 ± 1.2
159 | VHVLWLWQSMLLVHWSAV | 1.29 ± 0.93
160 | VIESG | 1.34 ± 0.93
161 | VIFSGVTRFHSRTCLRFVMI | -0.09 ± 0.79
162 | VIKSRP | 0.639 ± 0.42
163 | VILFNSNTEYQKLEQLLELW | 0.153 ± 0.23
164 | VILSYRLSEWGSSGDGDGRR | -0.562 ± 0.8
165 | VIMCVSRCTVRCV | 0.486 ± 0.52
166 | VIRFSGVLCMIDL | 5.09 ± 0.071
167 | VISIFVEF | 3.69 ± 0.12
168 | VITVSGSEGEIEWSS | -1.64 ± 2.7
169 | VKHCQFR | 1.69 ± 0.73
170 | VKIHASEVYFPMQSTYLMVD | 0.086 ± 0.72
171 | VKPLLIHIRALLEM | 1.55 ± 0.52
172 | VKVGVCGSVGWLHTGVQSNG | 0.804 ± 0.3
173 | VLANDVVPNSIYKKVSITYC | 0.884 ± 0.7
